Measured values from patent publication US20240026017A1 (Kyowa Kirin, published 2024).
Numbering of substitutions follows the chain as printed.

T1: human CC chemokine receptor 1 (human CCR1) (human, UniProt P32246 1-355)
T1 sequence: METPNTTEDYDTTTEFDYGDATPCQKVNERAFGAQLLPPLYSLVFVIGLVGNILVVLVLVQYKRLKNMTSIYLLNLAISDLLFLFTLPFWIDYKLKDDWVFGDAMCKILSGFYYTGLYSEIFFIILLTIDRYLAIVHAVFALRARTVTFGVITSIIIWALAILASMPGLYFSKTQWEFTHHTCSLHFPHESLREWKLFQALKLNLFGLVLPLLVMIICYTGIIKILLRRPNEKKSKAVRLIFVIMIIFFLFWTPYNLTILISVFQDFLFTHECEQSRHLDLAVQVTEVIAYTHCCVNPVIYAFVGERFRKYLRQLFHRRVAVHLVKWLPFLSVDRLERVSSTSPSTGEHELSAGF

T2: human CCR3 (human, UniProt P51677 1-355)
T2 construct: whole, on cells; also called hCCR3; CHO-S-hCCR3 (expressing cells)
T2 sequence (looked up): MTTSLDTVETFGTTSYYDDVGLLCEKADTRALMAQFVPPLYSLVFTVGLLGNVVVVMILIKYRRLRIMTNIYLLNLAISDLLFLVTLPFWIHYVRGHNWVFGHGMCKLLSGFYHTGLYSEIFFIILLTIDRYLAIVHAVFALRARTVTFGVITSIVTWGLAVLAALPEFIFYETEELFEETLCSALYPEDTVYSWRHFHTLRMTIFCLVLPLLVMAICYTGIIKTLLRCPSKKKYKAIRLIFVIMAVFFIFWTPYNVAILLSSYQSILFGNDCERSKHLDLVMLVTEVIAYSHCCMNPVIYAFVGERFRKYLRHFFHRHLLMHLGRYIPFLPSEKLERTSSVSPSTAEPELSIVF

B1: hzKM5907 LV2bHV3a antibody (antibody, V domains shown)
VH: EVQLLESGGGLVQPGGSLRLSCAASGFTFSRYGMSWVRQAPGKRLEWVSSISATFTYTYYTDNVKGRFTISRDNSKNTLYLQMNSLRAEDTGVYYCARQDNYAWFDSWGQGTLVTVSS
VL: DIVMTQTPLSLPVTSGEPVSISCRSSQSIVHSNGNTFLEWYLKKPGQSPQLLIYKVSSRFSGVPDRFSGSGSGTDFTLKISRVEAEDVGVYYCFQGSHIPWTFGGGTKVEIK
B2: hzKM5916 LV2HV0 antibody (antibody, V domains shown)
VH: QVQLQESGGGLVKPGGSLKLSCAASGFTFSRNAMSWVRQTPDKRLEWVAYISSGSDYIYYADTVKGRFTISRDNAKNTLYLQMSSLKSEDTAMYYCARFSYGYGKNAPDYWGQGTMVTVSS
VL: DIQMTQSPSSLSASVGDRVTITCKASQDINKYIAWYQHKPGKGPKLLIHYTSSLQPGVPSRFSGSGSGTDFSFTISSLQPEDLATYYCLQYDYTMTFGGGTKVEIK
B3: hzmAb5-06 LV5HV14 antibody (antibody, V domains shown)
VH: QVQLQQSGPGLVKPSQTLSITCTVSGFSLNNYGVHWVRQPPGKGLEWLGVIWSAGTTVYNAAAISRLTISKDTSKNQVSFKMSSLTAADTAVYYCAKDGSRYYTAMDYWGQGTLVTVSS
VL: DVVMTQSPLSLPVTLGEPASISCRSSQSLVHRNGITFFHWYLQKPGQSPKLLIYKISNRFSGVPDRFSGSGSGTDFTLKISRVEAEDVGVYFCSQGTHVPPTFGQGTKLEIK
B4: chKM5908′ mut27 (antibody, V domains shown)
VH: QVQLKQSGPGLVQPSQSLSITCTVSGFSLNNYGVHWVRQPPGKGLEWLGVTWSAGTTAYNAAFASRLSISKDDSKSQVFFKMNSLQAGDTAIYYCAKDGSRYYTAMDYWGQGTSVTVSS
VL: DVVMTQTPLSLPVSLGDQASIFCRSSQSLVHRNGITFFHWYLQKPGQSPKLLIYKVSNKFSGVPDRFSGSGSGTDFTLKISRVAPDDLGVYFCSQGTHVPPTFGGGTKLEIK
B5: chKM5908′ mut31 (antibody, V domains shown)
VH: B4 VH
VL: B4 VL with F38A, V56I, K59R
B6: chKM5908′ mut29 (antibody, V domains shown)
VH: B4 VH with A58V, A64I
VL: B4 VL with F38A, V56I, K59R
B7: chKM5908′ mut32 (antibody, V domains shown)
VH: B4 VH with A58V, Y102A, T104A
VL: B4 VL with F38A, V56I, K59R
B8: chKM5908′ mut28 (antibody, V domains shown)
VH: B4 VH with A58V, Y102A, T104A
VL: B4 VL
B9: chKM5908′ mut30 (antibody, V domains shown)
VH: B4 VH with T51I, A58V, F63A, A64I
VL: B4 VL with F38A, V56I, K59R
B10: chKM5908′ mut25 (antibody, V domains shown)
VH: B4 VH with A58V, A64I
VL: B4 VL
B11: chKM5908′ mut24 (antibody, V domains shown)
VH: B4 VH with A58V, Y102A, T104A
VL: B4 VL with V56I, K59R
B12: chKM5908′ mut26 (antibody, V domains shown)
VH: B4 VH with T51I, A58V, F63A, A64I
VL: B4 VL
B13: KM5907 antibody (antibody, mouse IgG1, V domains shown)
VH: EVQVVESGGNLVKPGGSLKLSCSASGFTFSRYGMSWVRQTPDKRLEWVASISATFTYTYYTDNVKGRFTISRDNAKNTLYLQMSSLRSEDTGMYYCTRQDNYAWFDSWGQGTLVTVSA
VL: DVLMTQTPLSLPVSLGDQVSISCRSSQSIVHSNGNTFLEWYLKKPGQSPKLLIYKVSSRFSGVPDRFSGSGSGTDFTLKIRRVEADDLGVYYCFQGSHIPWTFGGGTNLEIK
notes: mouse IgG1 from hybridoma
B14: KM5909 antibody (antibody, mouse IgG1, V domains shown)
VH: EVQLVESGGDLVKPGGSLKLSCAASGFTLSNYGMSWVRQTPDKRLEWVASISIGNYIYYLDSVKGRFTIYRDNAKNTLFLQMRSLKSEDTAMYHCARQGNDYDWFTYWGQGTLVTVSA
VL: B13 VL with V19A, I29V, S32T, F37Y, K43Q, S58N, R81N, D86E, I99L, N108K
notes: mouse IgG1 from hybridoma
B15: KM5915 antibody (antibody, mouse IgG2b, V domains shown)
VH: B14 VH with L29F, N55S, T106A
VL: B13 VL with V19A, S28N, S32T, F37Y, K43Q, S58N, R81S, D86E, I99L, N108K
notes: mouse IgG2b from hybridoma
B16: KM5908 antibody (antibody, mouse IgG2a, V domains shown)
VH: B4 VH with T51I, A58V, A64I
VL: DVVMTQTPRSLPVSLGDQASISCRSRQSLIHSNGITFLHWYLQKAGQSPKLLIYKVSNRFSGVPDRFSGSGSGTDFTLRISRVEAEDLGVYFCSQGTHVPPTFGGGTKLEIK
notes: mouse IgG2a from hybridoma
B17: KM5954 antibody (antibody, mouse IgG2a, V domains shown)
VH: QVQLKESGPGLVAPSQSLSITCTVSGFSLPRYTITWVRQPPGKGLEWLGLIRTGGGTIYNSALKSRLSISKDNSKSQVFLKMNSLQSGDTARYYCARNGAYYSKSGSYWYFDVWGTGTTVTVSS
VL: QIVLTQSPAIMSVSLGEEITLTCSASSSVSYMHWYQQKSGTSPKLLIYSTSNLASGVPSRFSGSGSGTFYSLTISSVEAEDAADYYCHQWSSHPCTFGGGTKLEIK
notes: mouse IgG2a from hybridoma
B18: KM5956 antibody (antibody, mouse IgG2a, V domains shown)
VH: B17 VH with P30A, K104N
VL: B17 VL with V13A, S30T, T101A
notes: mouse IgG2a from hybridoma
B19: KM5911 antibody (antibody, mouse IgG2b, V domains shown)
VH: DVKLVESGEGLVKPGGSLKLSCAASGFTFSRNAMSWVRQTPEKRMEWVAYISSGGDYIYYADTVKGRFTVSRDNARNTLYLRMSSLKSEDTAMYYCTRFSYGYAKNALDYWGQGTSVTVSS
VL: DIQMTQSPSSLSASLGGKVTITCKASQDIKKYIAWYQHKPGKGPRLLIHYTSSLQPGIPSRFSGSGSGRDYSFSISNLEPEDIATYYCLQYDYLMTFGGGTKLEIK
notes: mouse IgG2b from hybridoma
B20: KM5916 antibody (antibody, mouse IgG2b, V domains shown)
VH: B19 VH with M45L, G55S, R82Q, S84T, K87R, Y95F, A104G, L108P
VL: B19 VL with K30N, K42Q, L94T, K106R
notes: mouse IgG2b from hybridoma
B21: chKM5908′ antibody (antibody, V domains shown)
VH: B4 VH with T51I, A58V, A64I
VL: B4 VL with K59R
notes: chimeric; also called VL-substituted chimeric antibody (VH of chKM5908, VL of chKM5914)

molecular target: T1, human CC chemokine receptor 1 (human …); test: cell-based or functional assay

| antibody concentration showing THP-1 migration inhibitory activity [µg/mL] | Binder |
| --- | --- |
| ≥ 0.3 | B1 |
| ≥ 0.3 | B2 |
| ≥ 0.3 | B3 |

molecular target: T1, human CC chemokine receptor 1 (human …); test: flow cytometry on CHO-S-hCCR1 cells; bound = fluorescence 10 times or more that of isotype control chDNP1
Protocol: (§1) The antigen affinity of the chKM5908′ antibody, which is a VL-substituted chimeric antibody, was measured by flow cytometry using the CHO-S-hCCR1 cells produced in Example 2. The cells were collected by centrifugation, the supernatant was removed, and the cells were suspended in PBS (Staining Medium, hereinafter, abbreviated as SM) containing 2% fetal bovine serum (FBS), 0.05% NaN₃, and 1 mM EDTA. Next, the cells were seeded in a 96-well plate so that the number of cells is 1×10⁵ per well, and the chKM5908′ antibody was added at each final concentration of 10,000, 2,000, 400, 80, 16, and 3.2 ng/mL, and the reaction was performed at 4° C. for 60 minutes. After washing the cells with SM, Goat F (ab′)₂ Anti-Human IgG PE (γ chain specific) (Southern Biotech) diluted 500-fold with SM was added and reacted at 4° C. for 60 minutes. After washing the cells with SM, the cells were resuspended in 50 μL of SM, and the fluorescence intensity was measured by the flow cytometry (FACS Canto II, BD Biosciences).
1996 June; 33 (9):759-68, hereinafter, referred to as chDNP1)] were determined to be bound to the human CCR1.

| binding result | Binder |
| --- | --- |
| binds | B4 |
| binds | B5 |
| binds | B6 |
| binds | B7 |
| binds | B8 |
| binds | B9 |
| binds | B10 |
| binds | B11 |
| binds | B12 |

molecular target: T2, human CCR3; test: flow cytometry on CHO-S-hCCR3 cells, hybridoma culture supernatant diluted 10-fold
Source text: As test antibodies, each hybridoma culture supernatant diluted 10-fold, an existing mouse anti-human CCR1 monoclonal antibody 53504 antibody (R & D Technologies), and a mouse anti-human CCR3 monoclonal antibody 444-11 antibody (MBL) were used.
Regarding the measurement results, the fluorescence intensity when a certain cell was stained with a certain test antibody (each hybridoma culture supernatant, 53504 antibody or 444-11 antibody) and a secondary antibody was divided by the fluorescence intensity when the cell was stained only with the secondary antibody. […] In Table 2, the results are indicated as A and B, respectively.

| fluorescence intensity ratio (test antibody + secondary / secondary only) [fold] | Binder |
| --- | --- |
| < 10 | B13 |
| < 10 | B14 |
| < 10 | B15 |
| < 10 | B16 |
| < 10 | B17 |
| < 10 | B18 |
| < 10 | B19 |
| < 10 | B20 |

molecular target: T1, human CC chemokine receptor 1 (human …); test: flow cytometry on CHO-S-hCCR1 cells, antibody 3.2 to 10,000 ng/mL, Geomean compared
Protocol: as §1
The data was analyzed by FlowJo 7.65 (Tommy Digital Biology Co., Ltd.), and the binding strength was compared from the Geomean value at each concentration.

| binding result | Binder |
| --- | --- |
| binds | B21 |
